Data: PMC3939493, “Structure of the SAS-6 cartwheel hub from Leishmania major” (eLife, 2014)

Assays:
SAS-6 [1] = molecular target: T1, SAS-6 (Danio rerio, UniProt Q7ZVT3, F131D); test: SEC-MALS of purified protein with […] PK9119 (oligomerization reduced, less than for L. major); assay type: biochemical
T1 construct: gene sass6; Dr SAS-6^1–326
T1 sequence (Q7ZVT3 1-326 F131D): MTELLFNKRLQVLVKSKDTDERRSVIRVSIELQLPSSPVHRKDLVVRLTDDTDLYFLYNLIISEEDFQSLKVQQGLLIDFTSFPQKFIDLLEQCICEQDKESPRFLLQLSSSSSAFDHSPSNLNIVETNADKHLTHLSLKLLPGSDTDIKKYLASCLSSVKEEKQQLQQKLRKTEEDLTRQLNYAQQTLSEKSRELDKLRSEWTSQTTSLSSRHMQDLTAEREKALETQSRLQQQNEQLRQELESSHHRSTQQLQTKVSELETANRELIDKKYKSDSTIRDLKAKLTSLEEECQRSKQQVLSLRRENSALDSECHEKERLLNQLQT

SAS-6 [2] = molecular target: T2, SAS-6 (Leishmania major, UniProt E9AFQ5); test: SEC-MALS of purified protein with […] PK9119 (oligomerization reduced); assay type: biochemical
T2 construct: gene LMJF_35_4280; SAS-6^97–424
T2 sequence (E9AFQ5 97-424): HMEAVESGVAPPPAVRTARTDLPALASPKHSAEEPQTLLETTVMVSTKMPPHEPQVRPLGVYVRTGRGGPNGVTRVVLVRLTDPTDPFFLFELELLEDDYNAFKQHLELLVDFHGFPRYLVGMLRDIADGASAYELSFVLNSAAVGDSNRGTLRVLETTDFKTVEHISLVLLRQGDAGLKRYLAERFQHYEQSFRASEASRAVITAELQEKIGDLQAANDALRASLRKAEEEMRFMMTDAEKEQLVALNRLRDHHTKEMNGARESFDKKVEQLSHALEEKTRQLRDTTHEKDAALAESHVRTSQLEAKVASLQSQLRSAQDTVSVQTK

[3] = molecular target: L. major SAS-6^97–274 Y215K mutant (Leishmania major); test: AUC; sedimentation equilibrium; 100, 200 and 400 µM protein; 11300, 17000 and 21200 rpm; 4°C; 50 mM Tris, 100 mM NaCl, pH 8.0; monomer-dimer equilibrium model (dimer to monomers)
[4] = molecular target: L. major SAS-6^97–274 wild-type (Leishmania major); test: as above
[5] = molecular target: L. major SAS-6^97–320 F257E (Leishmania major); test: crystal structure; L. major SAS-6^97–320 F257E, sitting drop, 100 mM NaCitrate pH 5.85, 21% PEG-3000, 16°C; 94.7 mg/ml protein; 2.9 Å; four molecules in the asymmetric unit
[6] = molecular target: L. major SAS-6^97–424 F257E mutant (Leishmania major); test: SEC-MALS; Superdex S-200 10/300, 50 mM bisTris, 100 mM NaCl, pH 7.0, 0.126% DMSO, with or without 1 mM PK9119; L. major constructs injected at 25 mg/ml (675 µM monomer), zebrafish constructs at 10 mg/ml (263 µM monomer); peak concentrations about 10-fold lower
[7] = molecular target: L. major SAS-6^97–424 wild-type (Leishmania major); test: as above
[8] = molecular target: the molecule itself; test: as above

In the case of CCc1cc(Br)cc2c(CN(C)C)c[nH]c12 [PK9119, (5-bromo-7-ethyl-1H-indol-3-ylmethyl)-dimethyl-amine], the “SEC-MALS of purified protein with 1 mM PK9119 (oligomerization reduced, less tha)” value (SAS-6 [1]) is reported as “zebrafish SAS-6 oligomerization was also affected by the presence of PK9119, although to a lesser extent” and the “SEC-MALS of purified protein with 1 mM PK9119 (oligomerization reduced)” value (SAS-6 [2]) is reported as “a decrease in the analysed mass from MALS, demonstrating that PK9119 partially affects head-to-head dimerization”.

Molecule “L. major SAS-6^97–274 Y215K mutant (domain or fragment)” has a Kd [3] of 190 µM.

With “L. major SAS-6^97–274 wild-type (domain or fragment)” the Kd [4] was 622 µM.

“L. major SAS-6^97–320 F257E (domain or fragment)” gave a stoichiometry N [5] of 8.

“L. major SAS-6^97–424 F257E mutant (domain or fragment)” was tested, and the stoichiometry N [6] was 2.

For “L. major SAS-6^97–424 wild-type (domain or fragment)”, the stoichiometry N [7] was 6.

B1: Danio rerio SAS-6^1–326 F131D mutant (domain or fragment)
chain: GPHMTELLFNKRLQVLVKSKDTDERRSVIRVSIELQLPSSPVHRKDLVVRLTDDTDLYFLYNLIISEEDFQSLKVQQGLLIDFTSFPQKFIDLLEQCICEQDKESPRFLLQLSSSSSAFDHSPSNLNIVETNADKHLTHLSLKLLPGSDTDIKKYLASCLSSVKEEKQQLQQKLRKTEEDLTRQLNYAQQTLSEKSRELDKLRSEWTSQTTSLSSRHMQDLTAEREKALETQSRLQQQNEQLRQELESSHHRSTQQLQTKVSELETANRELIDKKYKSDSTIRDLKAKLTSLEEECQRSKQQVLSLRRENSALDSECHEKERLLNQLQT
notes: Dimer by SEC-MALS; source: E. coli BL21 Rosetta, purified (NiNTA, proteolytic tag cleavage, SEC, ion exchange); not shown: His tag, N-terminal, cleaved
For B1, the “stoichiometry N” value [8] was 2.

B2: Danio rerio SAS-6^1–326 wild-type (domain or fragment)
chain: GPHMTELLFNKRLQVLVKSKDTDERRSVIRVSIELQLPSSPVHRKDLVVRLTDDTDLYFLYNLIISEEDFQSLKVQQGLLIDFTSFPQKFIDLLEQCICEQDKESPRFLLQLSSSSSAFDHSPSNLNIVETNAFKHLTHLSLKLLPGSDTDIKKYLASCLSSVKEEKQQLQQKLRKTEEDLTRQLNYAQQTLSEKSRELDKLRSEWTSQTTSLSSRHMQDLTAEREKALETQSRLQQQNEQLRQELESSHHRSTQQLQTKVSELETANRELIDKKYKSDSTIRDLKAKLTSLEEECQRSKQQVLSLRRENSALDSECHEKERLLNQLQT
notes: also called zebrafish SAS-6; source: E. coli BL21 Rosetta, purified (NiNTA, proteolytic tag cleavage, SEC, ion exchange); not shown: His tag, N-terminal, cleaved
B2: binds [8].
